For two substances, Fab labeling density, nanobodies bound per BCR (average) and Kd results are on record in paper PMC9947222.

Series [1] has as its target mouse IgG2a (mIgG2a) antibody (BALB/c IgG2a,κ Purified Mouse Anti-Mouse I-A[b], Clone AF6-120.1), conjugated to the S1-handle DNA with P3 docking site (mouse). The experiment in a line: DNA-PAINT super-resolution microscopy on DNA origami (labeling efficiency); mIgG2a-DNA conjugate (60 nM) hybridised to DNA origami held by neutravidin on a biotin-PEG surface; κLC-Nb-7xR3 added in 0.5x buffer C + 1.5% BSA, >45 min at RT, excess washed off; two rounds of Exchange-PAINT (R3, P3); R3 clusters <19 nm from P3 clusters counted.

In series [2] the test system is anti-NP mAb clone B1-8 (Abcam ab206523) (mouse). The experiment in a line: FIDA. Particulars: binding via NIP hapten; in solution; LNA/2'-OMe as N0; one 5' amino-C6 NIP hapten (carrier strand not stated); BLI: PBS, 0.02% Tween-20, 0.1% BSA, pH 7.4, HJ 0.2-20 nM, temperature not stated; all positive binding is through the NP/NIP hapten, not the nucleic acid.

For the substance “anti-mouse kappa light chain nanobody (κLC-Nb) with Ser87 replaced by Cys87, conjugated to the DNA-PAINT docking strand 7xR3 (VHH)”, in series [1], the Fab labeling density was 80% and the nanobodies bound per BCR (average) turned out to be 1.5.
Turning to “CCGTCCTGAGCC / CACAGTGGACGG / GGCTCACCGATC / GATCGGACTGTG [HJ-1xNIP]”, in series [2], the Kd (as a rule, the free concentration of one partner at which half of the binding sites on the other are occupied at equilibrium, for simple one-to-one binding) is 0.02 µM.
